Experimental data as given in patent publication US20220411536A1 (NUMAB THERAPEUTICS, published 2022).

T1: recombinant human IL-23R (custom-made by Trenzyme) (human, UniProt Q5VWK5 24-355)
T1 sequence (looked up): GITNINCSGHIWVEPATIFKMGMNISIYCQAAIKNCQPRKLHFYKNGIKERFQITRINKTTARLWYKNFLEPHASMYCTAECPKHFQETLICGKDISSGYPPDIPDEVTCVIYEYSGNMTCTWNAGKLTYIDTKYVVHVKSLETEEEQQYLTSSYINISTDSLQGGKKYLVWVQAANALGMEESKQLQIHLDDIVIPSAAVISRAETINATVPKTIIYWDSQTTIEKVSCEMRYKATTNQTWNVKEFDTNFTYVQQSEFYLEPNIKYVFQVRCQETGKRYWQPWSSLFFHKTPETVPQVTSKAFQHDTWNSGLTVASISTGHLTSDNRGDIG


Columns and labels:
[1] = target: T2, human PD-L1 expressed on cells (CHO-PD-L1, HCC1954, HCC827) (human, UniProt Q9NZQ7 19-290); experiment: flow cytometry, inhibition of biotinylated PD-1 binding to HCC1954 cells
T2 construct: whole, on cells; also called hPD-L1; PD-L1 expressing cells

[2] = target: CD3e on Jurkat PD-1 NFAT reporter T cells or on T cells of human PBMCs (human, UniProt P07766 23-207); experiment: cell-based or functional assay
[3] = target: T2, human PD-L1 expressed on cells …; experiment: flow cytometry, inhibition of biotinylated PD-1 binding to HCC827 cells
[4] = target: T3, recombinant human CD3E ECD (SinoBiological, cat. 10977-H08H) (human, UniProt P07766 23-126); experiment: SPR, immobilised CD3e ECD, two-state model (kd1); kd1, first step of the two-state fit
T3 construct: extracellular domain; bought protein; also called CD3s
T3 sequence (P07766 23-126): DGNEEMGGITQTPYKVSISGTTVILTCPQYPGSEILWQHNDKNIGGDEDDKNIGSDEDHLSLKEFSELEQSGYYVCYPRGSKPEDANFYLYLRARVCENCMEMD

[5] = target: T1, recombinant human IL-23R (custom-made …); experiment: SPR, immobilised IL-23R
[6] = target: T3, recombinant human CD3E ECD …; experiment: SPR, immobilised CD3e ECD, two-state model (ka1); ka1, first step of the two-state fit
[7] = target: T3, recombinant human CD3E ECD …; experiment: SPR, immobilised CD3e ECD, two-state model
[8] = target: T4, Fc-tagged human PD-L1 extracellular domain (SinoBiological, cat. 10084-H02H) (human, UniProt Q9NZQ7 19-238); experiment: SPR, captured Fc-PD-L1 ECD, steady state
T4 construct: extracellular domain; also called hPD-L1; not shown: Fc tag of the bought protein

[9] = target: T3, recombinant human CD3E ECD …; experiment: SPR, immobilised CD3e ECD, two-state model; overall KD of the two-state fit
[10] = target: T5, recombinant human Her2 ECD (SinoBiological, cat. 10004-HCCH) (human, UniProt P04626 23-652); experiment: SPR, immobilised Her2 ECD
T5 construct: extracellular domain; bought protein

human serum albumin = target: T6, human serum albumin (human, UniProt P02768 25-609); experiment: SPR, immobilised HSA, pH 5.5
T6 construct: also called HSA; human SA

mouse serum albumin = target: T7, mouse serum albumin (mouse, UniProt P07724 25-608); experiment: SPR, immobilised MSA, pH 5.5
T7 construct: also called MSA; mouse SA
T7 sequence (P07724 25-608 limits assumed): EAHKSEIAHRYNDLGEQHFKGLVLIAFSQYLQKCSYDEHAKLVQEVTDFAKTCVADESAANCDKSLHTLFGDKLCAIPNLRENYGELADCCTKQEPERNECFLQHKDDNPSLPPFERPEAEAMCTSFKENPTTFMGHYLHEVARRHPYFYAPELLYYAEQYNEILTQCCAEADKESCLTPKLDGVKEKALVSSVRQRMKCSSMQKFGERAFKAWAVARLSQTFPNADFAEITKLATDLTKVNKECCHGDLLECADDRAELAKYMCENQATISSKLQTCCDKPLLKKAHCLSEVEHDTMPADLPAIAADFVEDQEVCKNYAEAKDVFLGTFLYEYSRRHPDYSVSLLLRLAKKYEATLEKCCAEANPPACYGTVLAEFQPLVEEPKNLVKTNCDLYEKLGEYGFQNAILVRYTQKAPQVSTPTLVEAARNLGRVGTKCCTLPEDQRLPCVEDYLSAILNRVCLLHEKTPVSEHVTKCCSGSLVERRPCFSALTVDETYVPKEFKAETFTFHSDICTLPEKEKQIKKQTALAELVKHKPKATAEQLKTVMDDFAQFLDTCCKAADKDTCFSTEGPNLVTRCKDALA

[11] = target: T4, Fc-tagged human PD-L1 extracellular …; experiment: SPR, captured Fc-PD-L1 ECD, kinetic
[12] = target: T4, Fc-tagged human PD-L1 extracellular …; experiment: SPR, alanine mutants of 33-03-G02
[13] = target: T4, Fc-tagged human PD-L1 extracellular …; experiment: SPR, captured Fc-PD-L1 ECD, scFv analyte, kinetic
[14] = target: T3, recombinant human CD3E ECD …; experiment: SPR, immobilised CD3e ECD, two-state model (kd1)
[15] = target: T3, recombinant human CD3E ECD …; experiment: SPR, immobilised CD3e ECD, two-state model (ka1)

IC50 [1] [µg/mL] | IC50, NFAT reporter, CHO-PD-L1 (A2 clone) cells [2] [nM] | IC50, NFAT reporter, HCC1954 cells [2] [nM] | rel. max. activation vs PRO1497, NFAT reporter, HCC1954 cells [2] [%] | rel. max. activation vs PRO1497 on HCC1954, NFAT reporter, CHO-PD-L1 (A2 clone) cells [2] [%] | IC50 [3] [µg/mL] | koff [4] [s⁻¹] | Kd [5] [nM] | KD1 [7] [nM] | kd2 [7] [s⁻¹] | Kd [8] [nM] | Kd (human serum albumin) [nM] | koff (human serum albumin) [s⁻¹] | kon (human serum albumin) [M⁻¹ s⁻¹] | Kd (mouse serum albumin) [nM] | koff (mouse serum albumin) [s⁻¹] | kon (mouse serum albumin) [M⁻¹ s⁻¹] | Kd [11] [nM] | koff [11] [s⁻¹] | kon [11] [M⁻¹ s⁻¹] | Binder | also measured
51.9 | 31.5 | 95.4 | 28 | 60 | 254 | 0.00752 | 0.848 | 38.2 | 0.00533 | 380 | 0.797 | 0.000134 | 168000 | 17.3 | 0.00116 | 67000 | 14.3 | 0.000345 | 24100 | PRO1546 (multispecific antibody) chain 1: DIQMTQSPSSLSASVGDRVTITCQASENIYSFLAWYQQKPGKAPKLLIYSASKLAAGVPSRFSGSGSGTDFTLTISSLQPEDFATYYCQQTNRYSNPDIYNVFGTGTKVTVLGGGGGSGGGGSGGGGSGGGGSEVQLVESGGGLVQPGGSLRLSCAASGIDFNSNYYMCWVRQAPGKGLEWIGCIYVGSHVNTYYANWAKGRFTISRDNSKNTVYLQMNSLRAEDTAVYYCATSGSSVLYFKFWGQGTLVTVSSGGGGSGGGGSDVVMTQSPSSLSASVGDRVTITCQASQIISSRSAWYQQKPGQPPKLLIYQASKLASGVPSRFSGSGSGTDFTLTISSLQPEDFATYYCQCTYIDSNFGAFGCGTKLTVLGGGSGGSDIQMTQSPSSLSASVGDRVTITCQSSQSVFSNNYLAWFQQKPGQSPKRLIYSASTLASGVPSRFSGSGSGTDFTLTISSLQPEDFATYYCLGSYACSSADCYVFGTGTKVTVLG chain 2: DIQMTQSPSSLSASVGDRVTITCQASQSINDYLAWYQQKPGKAPKLLIYKASTLASGVPSRFSGSGSGTDFTLTISSLQPEDFATYYCQAAYIITDIDNVFGTGTKVTVLGGGGGSGGGGSGGGGSGGGGSQVQLQESGPGLVKPSETLSLTCKVSGFSFSSGYDMCWIRQPPGKGLEWIGCVVAGSVDITYYASWAKGRVTISVDSSKNQFSLKLSSVTAADTAVYYCARKDAYSDAFNLWGQGTLVTVSSGGGGSGGGGSEVQLVESGGGLVQPGGSLRLSCAASGFSLSSYDMSWVRQAPGKGLAWIGASYASGPTYYASWAKGRFTISRDNSKNTVYLQMNSLRAEDTATYFCARGGWTGTSHSNIWGQGTLVTVSSGGGSGGGSEVQLVESGGGLVQPGGSLRLSCAASGFSFSSSYWICWVRQAPGKCLEWVGCVFTGDGTTYYASWAKGRFTISRDNSKNTVYLQMNSLRAEDTATYFCARPVSVYYYGMDLWGQGTLVTVSS | koff [5]: 0.000388 s⁻¹; kon [5]: 458000 M⁻¹ s⁻¹; kon [6]: 197000 M⁻¹ s⁻¹; Kd [9]: 18.3 nM; binding result [10]: no binding (tested: 90 nM highest concentration)
 |  |  |  |  |  |  |  |  |  |  |  |  |  |  |  |  |  |  |  | PRO1076 (scFv, V domains shown, also called 33-03-G02 VL-G109A) VH: QVQLQESGPGLVKPSETLSLTCKVSGFSFSSGYDMCWIRQPPGKGLEWIGCVVAGSVDITYYASWAKGRVTISVDSSKNQFSLKLSSVTAADTAVYYCARKDAYSDAFNLWGQGTLVTVSS VL: DIQMTQSPSSLSASVGDRVTITCQASQSINDYLAWYQQKPGKAPKLLIYKASTLASGVPSRFSGSGSGTDFTLTISSLQPEDFATYYCQQAYIITDIDNVFGTGTKVTVLG | fold reduction of affinity vs the original domain [12]: > 100 fold; Kd [13]: 7.52 nM; koff [13]: 0.0135 s⁻¹; kon [13]: 1.8e+06 M⁻¹ s⁻¹
0.528 | 10.5 | 2.29 | 78 | 42 | 46 |  |  | 23.2 | 0.0042 | 809 | 0.87 | 0.000121 | 139000 | 19.5 | 0.00112 | 57500 | 284 | 0.00117 | 4120 | PRO1544 (multispecific antibody) chain 1: DIQMTQSPSSLSASVGDRVTITCQASQSINDYLAWYQQKPGKAPKLLIYKASTLASGVPSRFSGSGSGTDFTLTISSLQPEDFATYYCQAAYIITDIDNVFGTGTKVTVLGGGGGSGGGGSGGGGSGGGGSQVQLQESGPGLVKPSETLSLTCKVSGFSFSSGYDMCWIRQPPGKGLEWIGCVVAGSVDITYYASWAKGRVTISVDSSKNQFSLKLSSVTAADTAVYYCARKDAYSDAFNLWGQGTLVTVSSGGGGSGGGGSDVVMTQSPSSLSASVGDRVTITCQASQIISSRSAWYQQKPGQPPKLLIYQASKLASGVPSRFSGSGSGTDFTLTISSLQPEDFATYYCQCTYIDSNFGAFGCGTKLTVLGGGSGGSDIQMTQSPSSLSASVGDRVTITCQSSQSVFSNNYLAWFQQKPGQSPKRLIYSASTLASGVPSRFSGSGSGTDFTLTISSLQPEDFATYYCLGSYACSSADCYVFGTGTKVTVLG chain 2: not shown | binding result [5]: no binding (tested: 90 nM highest concentration); Kd [7]: 12.7 nM; Kd [10]: 0.354 nM; koff [10]: 5.56e-05 s⁻¹; kon [10]: 157000 M⁻¹ s⁻¹; koff [14]: 0.00516 s⁻¹; kon [15]: 222000 M⁻¹ s⁻¹
4.14 | 26 | 12.2 | 67 | 59 | 88.1 | 0.00645 | 1.52 | 38.2 | 0.00432 | 879 | 0.693 | 0.000119 | 171000 | 15.9 | 0.00108 | 67900 | 1130 | 0.0022 | 1950 | PRO1545 (multispecific antibody) chain 1: DIQMTQSPSSLSASVGDRVTITCQASQSINDYLAWYQQKPGKAPKLLIYKASTLASGVPSRFSGSGSGTDFTLTISSLQPEDFATYYCQAAYIITDIDNVFGTGTKVTVLGGGGGSGGGGSGGGGSGGGGSQVQLQESGPGLVKPSETLSLTCKVSGFSFSSGYDMCWIRQPPGKGLEWIGCVVAGSVDITYYASWAKGRVTISVDSSKNQFSLKLSSVTAADTAVYYCARKDAYSDAFNLWGQGTLVTVSSGGGGSGGGGSDVVMTQSPSSLSASVGDRVTITCQASQIISSRSAWYQQKPGQPPKLLIYQASKLASGVPSRFSGSGSGTDFTLTISSLQPEDFATYYCQCTYIDSNFGAFGCGTKLTVLGGGSGGSDIQMTQSPSSLSASVGDRVTITCQSSQSVFSNNYLAWFQQKPGQSPKRLIYSASTLASGVPSRFSGSGSGTDFTLTISSLQPEDFATYYCLGSYACSSADCYVFGTGTKVTVLG chain 2: DIQMTQSPSSLSASVGDRVTITCQASENIYSFLAWYQQKPGKAPKLLIYSASKLAAGVPSRFSGSGSGTDFTLTISSLQPEDFATYYCQQTNRYSNPDIYNVFGTGTKVTVLGGGGGSGGGGSGGGGSGGGGSEVQLVESGGGLVQPGGSLRLSCAASGIDFNSNYYMCWVRQAPGKGLEWIGCIYVGSHVNTYYANWAKGRFTISRDNSKNTVYLQMNSLRAEDTAVYYCATSGSSVLYFKFWGQGTLVTVSSGGGGSGGGGSEVQLVESGGGLVQPGGSLRLSCAASGFSLSSYDMSWVRQAPGKGLAWIGASYASGPTYYASWAKGRFTISRDNSKNTVYLQMNSLRAEDTATYFCARGGWTGTSHSNIWGQGTLVTVSSGGGSGGGSEVQLVESGGGLVQPGGSLRLSCAASGFSFSSSYWICWVRQAPGKCLEWVGCVFTGDGTTYYASWAKGRFTISRDNSKNTVYLQMNSLRAEDTATYFCARPVSVYYYGMDLWGQGTLVTVSS | koff [5]: 0.000471 s⁻¹; kon [5]: 309000 M⁻¹ s⁻¹; kon [6]: 169000 M⁻¹ s⁻¹; Kd [9]: 16.7 nM; binding result [10]: no binding (tested: 90 nM highest concentration)
